Laboratory results published in the supplement of paper PMC12667976.
± gives the standard error.

B1: library; numbered along this chain (parent)
chain: MATDAALRRLLRLHRTEIAVAVDSAFPLLHALADHDVVPEDKFQETLHLKEKEGCPQAFHALLSWLLTQDSTAILDFWRVLFKDYNLERYGRLQPILDSFPKDVDLSQPRKGRKPPAVPKALVPPPRLPTKRKASEEARAAAPAALTPRGTASPGSQLKAKPPKKPESSAEQQRLPLGNGIQTMSASVQRAVAMSSGDVPGARGAVEGILIQQVFESGGSKKCIQVGGEFYTPSKFEDSGSGKNKARSSSGPKPLVRAKGAQGAAPGGGEARLGQQGSVPAPLALPSDPQLHQKNEDECAVCRDGGELICCDGCPRAFHLACLSPPLREIPSGTWRCSSCLQATVQEVQPRAEEPRPQEPPVETPLPPGLRSAGEEVRGPPGEPLAGMDTTLVYKHLPAPPSAAPLPGLDSSALHPLLCVGPEGQQNLAPGARCGVCGDGTDVLRCTHCAAAFHWRCHFPAGTSRPGTGLRCRSCSGDVTPAPVEGVLAPSPARLAPGPAKDDTASHEPALHRDDLESLLSEHTFDGILQWAIQSMARPAAPFPS

Variants of: B1
Assay: AIRE transcriptional activation functional score (insulin promoter-GFP; nonsense median 0, synonymous median 1) (normalised score); higher = higher AIRE activity (more reporter activation)
Details: with insulin promoter-GFP reporter in HEK293
Experimental: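 Deep mutational scan of full-length human AIRE (codon-optimized cDNA, DT-POPCode NNN libraries over three regions) integrated at a Bxb1 landing pad in HEK293 cells carrying an insulin core promoter-GFP reporter at a Flp-In site. Cells were sorted for the top 10% GFP about 14 days after transfection. Variant frequency log-ratios (select vs non-select, TileSeq) were rescaled so that the nonsense median is 0 and the synonymous median is 1, then averaged over biological replicates.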

Variant	AIRE transcriptional activation functional score
E237T	0.952 ± 0.1
E237F	-1.02 ± 0.4
D4G	0.166 ± 0.2
Y231K	0.204 ± 0.054
E136T	0.767 ± 0.32
L255S	0.79 ± 0.25
K42L	0.0963 ± 0.73
S521K	-0.211 ± 0.063
S521A	0.824 ± 0.41
Q290N	1.19 ± 0.22
Q290S	0.97 ± 0.17
E423H	1.2 ± 0.13
E423T	0.737 ± 0.77
P115H	1.03 ± 0.71
C434F	0.223 ± 0.047
S332K	0.518 ± 0.046
Q157F	1.5 ± 0.2
R203C	1.82 ± 0.066
P407S	1.19 ± 0.18
G274S	1.09 ± 0.32
G274P	0.734 ± 0.42
V256R	0.207 ± 0.45
N427P	1.18 ± 0.55
N427D	1.07 ± 0.42

Variant	AIRE transcriptional activation functional score
G462C	0.984 ± 0.24
H35E	-0.848 ± 0.6
P331I	1.59 ± 0.11
F543Y	0.833 ± 0.25
V206G	0.631 ± 0.19
V206E	0.273 ± 0.073
K114Y	1.51 ± 0.4
K114G	0.427 ± 0.71
K114F	0.817 ± 0.29
L97D	0.828 ± 0.47
G251M	0.603 ± 0.14
G435E	0.463 ± 0.17
G435C	1.18 ± 0.071
R113V	0.537 ± 0.49
R113S	1.02 ± 0.33
R113A	0.951 ± 0.44
S234G	1.16 ± 0.21
S234C	1.53 ± 0.19
S234A	1.24 ± 0.36
S241A	0.598 ± 0.15
G204N	0.413 ± 0.31
G467P	1.04 ± 0.11
P326Y	1.14 ± 0.061
A281D	0.674 ± 0.04

Variant	AIRE transcriptional activation functional score
G382Y	1.13 ± 0.097
P119F	1.39 ± 0.14
Q342W	1.73 ± 0.09
Q342Y	1.06 ± 0.13
R139M	1.04 ± 0.11
P200I	0.675 ± 0.44
P200K	0.571 ± 0.29
L444W	0.452 ± 0.12
S220Q	-1.55 ± 0.21
C419G	0.96 ± 0.41
C419P	1.24 ± 0.23
C419A	0.69 ± 0.37
R445T	0.578 ± 0.34
R445V	0.784 ± 0.24
R445W	0.804 ± 0.14
R445H	0.423 ± 0.093
W455M	0.774 ± 0.17
P398A	1.09 ± 0.16
P398G	1.14 ± 0.24
P398C	0.359 ± 0.058
L87T	0.00113 ± 0.16
L87D	0.374 ± 0.27
P422I	1.26 ± 0.13
F59N	-0.0761 ± 0.11

Variant	AIRE transcriptional activation functional score
D442E	0.869 ± 0.1
A399R	0.779 ± 0.2
A399P	1.38 ± 0.31
H396Q	1.12 ± 0.14
K50D	1.78 ± 0.2
A21N	0.54 ± 0.18
S491W	1.03 ± 0.1
A193K	0.858 ± 0.056
A193V	0.147 ± 0.18
T68E	-2.1 ± 0.14
Y394V	0.926 ± 0.18
Y394K	0.301 ± 0.18
P162Y	2.9 ± 0.096
Q262L	1.31 ± 0.12
Q262S	0.84 ± 0.43
Q425V	0.734 ± 0.21
L93S	-0.0816 ± 0.29
T72I	0.104 ± 0.57
T72K	1.59 ± 0.38
A160M	0.0796 ± 0.22
E307Y	0.242 ± 0.28
E307D	0.973 ± 0.21
R465I	0.773 ± 0.47
K253N	0.817 ± 0.22

Variant	AIRE transcriptional activation functional score
K235T	0.985 ± 0.098
K235L	0.897 ± 0.23
K235P	1.43 ± 0.39
I211V	1.15 ± 0.18
D103I	0.368 ± 0.25
L47A	0.636 ± 0.44
L47G	0.313 ± 0.19
L47T	-0.713 ± 0.1
M536N	0.506 ± 0.036
P148E	1.67 ± 0.49
A510V	1.09 ± 0.28
A510I	-0.237 ± 0.11
A510S	0.921 ± 0.32
L177S	0.553 ± 0.33
L177G	-0.4 ± 0.62
T232C	0.594 ± 0.23
V362N	1.3 ± 0.081
T447Q	0.797 ± 0.062
T480R	0.837 ± 0.35
A186K	0.646 ± 0.09
A186D	1.11 ± 0.061
A31Q	0.778 ± 0.11
R9G	0.856 ± 0.66
L106A	-0.169 ± 0.18

Variant	AIRE transcriptional activation functional score
A25S	0.301 ± 0.39
A403W	1.72 ± 0.033
H48Q	1.5 ± 0.14
H48R	1.64 ± 0.88
I528C	0.179 ± 0.17
P95S	0.715 ± 0.46
P95T	1.34 ± 0.46
L63R	-0.0432 ± 0.48
T524K	0.256 ± 0.25
E137G	0.593 ± 0.29
E137W	1.59 ± 0.4
L146H	0.618 ± 0.53
L146P	0.73 ± 0.35
L146T	1.09 ± 0.68
T344D	0.882 ± 0.3
Q426V	1.29 ± 0.083
P154Q	-0.0735 ± 0.26
P154H	0.26 ± 0.51
A482G	1.31 ± 0.59
V484L	0.509 ± 0.47
D389W	0.0908 ± 0.069
G54E	0.772 ± 0.34
G54N	-1.62 ± 0.24
E347I	1.15 ± 0.12

Variant	AIRE transcriptional activation functional score
L75W	2.01 ± 0.082
P380V	0.912 ± 0.15
S217H	1.07 ± 0.11
L158G	1.33 ± 0.7
L158E	0.986 ± 0.54
S535W	0.301 ± 0.028
D304N	0.503 ± 0.28
A505T	-0.258 ± 0.53
C437H	0.0985 ± 0.1
Q57L	1.41 ± 0.39
H292Y	0.957 ± 0.47
Q349S	1.26 ± 0.17
Q534K	0.887 ± 0.14
F77D	-0.0172 ± 0.53
A73H	2.12 ± 0.25
W531A	-0.104 ± 0.096
W531P	-0.179 ± 0.18
A429V	1.01 ± 0.15
A429R	0.843 ± 0.2
A429E	0.833 ± 0.28
Q225D	0.269 ± 0.14
H30M	0.839 ± 0.14
H30E	0.323 ± 0.48
